Test results from patent US20260250318A1, “COMPOSITIONS AND METHODS FOR CROSSING THE BLOOD BRAIN BARRIER” (VOYAGER THERAPEUTICS, INC., priority 2022, published 2026).

T1: ALPL (Homo sapiens, UniProt P05186)
T1 sequence (P05186 18-501): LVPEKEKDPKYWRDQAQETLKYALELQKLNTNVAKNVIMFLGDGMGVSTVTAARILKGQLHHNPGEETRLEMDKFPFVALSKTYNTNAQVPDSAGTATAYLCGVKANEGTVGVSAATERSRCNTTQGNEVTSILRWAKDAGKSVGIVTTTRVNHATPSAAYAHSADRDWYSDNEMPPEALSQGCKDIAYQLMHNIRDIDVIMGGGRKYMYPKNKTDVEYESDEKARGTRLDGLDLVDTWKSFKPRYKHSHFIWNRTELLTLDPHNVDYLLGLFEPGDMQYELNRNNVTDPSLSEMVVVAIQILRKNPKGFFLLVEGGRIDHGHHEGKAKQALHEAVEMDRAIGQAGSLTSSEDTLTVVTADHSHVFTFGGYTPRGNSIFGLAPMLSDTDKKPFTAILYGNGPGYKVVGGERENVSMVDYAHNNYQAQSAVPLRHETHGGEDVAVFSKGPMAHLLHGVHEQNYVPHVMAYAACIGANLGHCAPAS

B1: TTM-001: AAV9 capsid variant comprising SPHSKA (SEQ ID NO: 941) in loop IV (protein)
chain 1: MAADGYLPDWLEDNLSEGIREWWALKPGAPQPKANQQHQDNARGLVLPGYKYLGPGNGLDKGEPVNAADAAALEHDKAYDQQLKAGDNPYLKYNHADAEFQERLKEDTSFGGNLGRAVFQAKKRLLEPLGLVEEAAKTAPGKKRPVEQSPQEPDSSAGIGKSGAQPAKKRLNFGQTGDTESVPDPQPIGEPPAAPSGVGSLTMASGGGAPVADNNEGADGVGSSSGNWHCDSQWLGDRVITTSTRTWALPTYNNHLYKQISNSTSGGSSNDNAYFGYSTPWGYFDFNRFHCHFSPRDWQRLINNNWGFRPKRLNFKLFNIQVKEVTDNNGVKTIANNLTSTVQVFTDSDYQLPYVLGSAHEGCLPPFPADVFMIPQYGYLTLNDGSQAVGRSSFYCLEYFPSQMLRTGNNFQFSYEFENVPFHSSYAHSQSLDRLMNPLIDQYLYYLSKTINGSGSPHSKAQNQQTLKFSVAGPSNMAVQGRNYIPGPSYRQQRVSTTVTQNNNSEFAWPGASSWALNGRNSLMNPGPAMASHKEGEDRFFPLSGSLIFGKQGTGRDNVDADKVMITNEEEIKTTNPVATESYGQVATNHQSAQAQAQTGWVQNQGILPGMVWQDRDVYLQGPIWAKIPHTDGNFHPSPLMGGFGMKHPPPQILIKNTPVPADPPTAFNKDKLNSFITQYSTGQVSVEIEWELQKENSKRWNPEIQYTSNYYKSNNVEFAVNTEGVYSEPRPIGTRYLTRNL
chain 2: GSGSPHSKAQNQQT
B2: TTM-002: AAV9 capsid variant comprising HDSPHK (SEQ ID NO: 2) in loop IV (protein)
chain 1: MAADGYLPDWLEDNLSEGIREWWALKPGAPQPKANQQHQDNARGLVLPGYKYLGPGNGLDKGEPVNAADAAALEHDKAYDQQLKAGDNPYLKYNHADAEFQERLKEDTSFGGNLGRAVFQAKKRLLEPLGLVEEAAKTAPGKKRPVEQSPQEPDSSAGIGKSGAQPAKKRLNFGQTGDTESVPDPQPIGEPPAAPSGVGSLTMASGGGAPVADNNEGADGVGSSSGNWHCDSQWLGDRVITTSTRTWALPTYNNHLYKQISNSTSGGSSNDNAYFGYSTPWGYFDFNRFHCHFSPRDWQRLINNNWGFRPKRLNFKLFNIQVKEVTDNNGVKTIANNLTSTVQVFTDSDYQLPYVLGSAHEGCLPPFPADVFMIPQYGYLTLNDGSQAVGRSSFYCLEYFPSQMLRTGNNFQFSYEFENVPFHSSYAHSQSLDRLMNPLIDQYLYYLSKTINGHDSPHKSGQNQQTLKFSVAGPSNMAVQGRNYIPGPSYRQQRVSTTVTQNNNSEFAWPGASSWALNGRNSLMNPGPAMASHKEGEDRFFPLSGSLIFGKQGTGRDNVDADKVMITNEEEIKTTNPVATESYGQVATNHQSAQAQAQTGWVQNQGILPGMVWQDRDVYLQGPIWAKIPHTDGNFHPSPLMGGFGMKHPPPQILIKNTPVPADPPTAFNKDKLNSFITQYSTGQVSVEIEWELQKENSKRWNPEIQYTSNYYKSNNVEFAVNTEGVYSEPRPIGTRYLTRNL
chain 2: GHDSPHKSGQNQQT

Assays:
[1] = test system: brain, spinal cord, liver and peripheral tissues; experiment: Individual capsid characterization in mice (qPCR transgene mRNA, viral DNA, IVIS, anti-GFP IHC); conditions: for DNA (viral genome quantification), Brain, relative to the AAV9 control / mRNA (transgene expression), Brain, relative to the AAV9 control / DNA (viral genome quantification), Liver, relative to the AAV9 control / mRNA (transgene expression), Liver, relative to the AAV9 control: BALB/c mice, tail vein 5e11 VG/dose; for anti-GFP immunohistochemistry staining in brain and spinal cord: compared to AAV9 control
Procedure: AAV particles were generated with each of these capsid variants encapsulating a luciferase-EGFP transgene driven by a CMV/chicken beta actin promoter in a single stranded viral genome. Each capsid variant and AAV9 control were tested by intravenously administering by tail vein injection, the AAV particle formulation at 5e11 VG/dose (2.5E13 vg/kg) to three female BALB/c mice. The in-life period was 28 days and then various CNS and peripheral tissues were collected for measuring transgene mRNA, transgene protein, and viral DNA (biodistribution).
At 28 days post-injection of the AAV particles encapsulated in the TTM-001 capsid variant (AAV_TTM-001), mice were injected with luciferin and their brains were harvested for IVIS imaging.
The brains isolated from mice injected with the AAV particles encapsulated in the TTM-001 capsid variant (AAV_TTM-001) or the TTM-002 capsid variant (AAV_TTM-002) were assayed by qPCR for the presence of transgene RNA as a measure of transgene expression, and the presence of viral DNA as a measure of viral genome levels. Data were provided as fold over AAV9 (Table 12).
The brain tissues and spinal cords of the mice were also subjected to anti-GFP immunohistochemistry staining to evaluate overall CNS tropism and biodistribution.
Peripheral tissues were also isolated from the mice intravenously injected with the AAV particles encapsulated in the TTM-001 capsid variant or the TTM-002 capsid variant for analysis by qPCR and/or GFP immunohistochemical staining. Transgene mRNA levels and viral genome DNA levels were quantified in the liver by qPCR and the fold over AAV9 was calculated for each capsid variant (Table 12).

ALPL = molecular target: T1, ALPL; experiment: SPR (Biacore 8K) binding of peptide ligands to ALPL; conditions: 50 μM peptides or 250 nM capsids flowed over
Procedure: Binding and interaction between the peptides and the ALPL receptor were measured by Surface Plasmon Resonance (SPR) on a Biacore 8K instrument. The biotinylated peptides in Table 37 were captured on the streptavidin biosensor chip and 1000 nM of ALPL and buffer were passed over the peptides to monitor binding. […] His-tagged ALPL was then captured on the chip pre-immobilized with anti-His antibody, and 50 μM of the peptides in Table 37 or 250 nM of the AAV9 control capsid, the TTM-001 capsid variant (SEQ ID NO: 981), or the TTM-002 capsid variant (SEQ ID NO: 982) were flowed over the ALPL to check for binding. […] The longer peptides derived from TTM-002,
were also flowed over the his-tagged ALPL captured on the CM5 sensor chip pre-immobilized with anti-His antibody.
Binding and interaction between the phosho-peptides and the ALPL receptor were also measured by SPR. The biotinylated and phosphorylated peptides in Table 38 were captured on the streptavidin biosensor chip along with their non-phosphorylated counterparts, […] (SEQ ID NO: 4500) and […] (SEQ ID NO: 4503). ALPL and buffer were passed over the peptides to monitor binding. The concentration of ALPL used ranged from 0 to 500 nM (0 nM, 125 nM, 250 nM, and 500 nM).
In a second experiment, his-tagged ALPL was first captured on a CM5 sensor chip pre-immobilized with anti-His antibody. The phosphorylated peptides in Table 38 and their non-phosphorylated counterparts, […] (SEQ ID NO: 4500) and […] (SEQ ID NO: 4503) and buffer were flowed over the ALPL protein to monitor binding.

Molecule	DNA (viral genome quantification), Brain, relative to the AAV9 control ([1]; 28 days, qPCR)	mRNA (transgene expression), Brain, relative to the AAV9 control ([1]; 28 days, qPCR)	DNA (viral genome quantification), Liver, relative to the AAV9 control ([1]; 28 days, qPCR, liver)	mRNA (transgene expression), Liver, relative to the AAV9 control ([1]; 28 days, qPCR, liver)	binding to ALPL by SPR, His-tagged ALPL captured on chip (ALPL)	luciferase signal in brain (IVIS imaging) ([1]; 28 days post-injection, 5e11 VG/dose IV, vs AAV9)	anti-GFP immunohistochemistry staining in brain and spinal cord [1]	transgene mRNA levels in the brain, fold over AAV9 ([1]; qPCR, 28 days, 5e11 VG/dose IV)	viral genome (DNA) concentrations in the brain, fold over AAV9 ([1]; qPCR, 28 days, 5e11 VG/dose IV)	viral genome DNA levels in the liver compared to AAV9 ([1]; qPCR, liver)	transgene mRNA levels in the liver compared to AAV9 ([1]; qPCR, liver)
AAV9: wild-type AAV9 control capsid [reference compound]	1.0 fold over AAV9	1.0 fold over AAV9	1.0 fold over AAV9	1.0 fold over AAV9	No detectable binding	–	–	–	–	–	–
B1	32.0315 fold over AAV9	30.4503 fold over AAV9	0.4802 fold over AAV9	1.2356 fold over AAV9	Binding to ALPL was detected	Robust luciferase signal	significantly stronger staining and payload expression	30 fold	32 fold	only half as much	–
B2	47.2810 fold over AAV9	66.2161 fold over AAV9	0.0277 fold over AAV9	0.2016 fold over AAV9	Binding to ALPL was detected	–	significantly stronger staining and payload expression	66 fold	–	greatly reduced	greatly reduced
